Laboratory results: patent publication US9260728B2, “Terpene synthases from Santalum” (UNIVERSITY OF BRITISH COLUMBIA, priority 2009, dated 2016)

What was measured:
[1] = GC-FID determination of reaction products of terpene synthases from FPP with magnesium or manganese; type: biochemical
Procedure: Enzyme assays for all recombinant proteins were done in triplicate using the GC vial method described by O'Maille et al. (Anal. Biochem. 335:[…] (2004). For enzyme assays where only product identification was needed, 10 μg of protein was used in a final volume of 500 μL of reaction buffer (25 mM HEPES, 10% glycerol, 5 mM DTT and 10 mM of either Mg^2+ or Mn^2+. Substrates (FPP and GPP) were added to a final reaction concentration of 100 μM. Vials were overlaid with 500 μL of hexane to trap volatile products and incubated at 30° C. for 2 h. Mixtures were vortexed for 1 min to extract all volatiles and the vials were centrifuged to separate the organic layer.
Product mixtures were analysed by GC-MS in scan mode for product identification. A standard containing the three santalenes and α-trans-bergamotene was prepared by flash chromatography of 2 mL of neat S. album oil over silica and eluted in hexane. A final yield of 25 mg was resuspended in EtOAc and purity was confirmed by GC-FID with conditions described below. All mass spectra were compared to the NIST 2005 library and the literature. Retention indices were determined for all compounds using an n-alkane standard and compared to the literature (R. P. Adams, “Identification of essential oil components by gas chromatography/mass spectrometry,” Allured Publishing Corporation, Carol Stream, Ill. (1995)).
GC-FID was performed on a Shimadzu GC2010 with a 30 m 0.25 mm ID, 0.25 μm film DB-WAX column with He as the carrier gas. Splitless injection (2 μL) was used for all analyses. Conditions were as follows: injector 200° C., detector 250° C., column flow rate 1 mL/min. Oven program: 40° C. for 3 min, then 8° C./min to 180° C., held 5 min, then 10° C./min to 220° C., held 10 min. Needle height was adjusted to only draw from the upper organic layer of all sample vials. GC-MS was performed on a Shimadzu GC2010 with the same DB-WAX column and using He as the carrier gas. Conditions were as follows: injector 200° C., MS interface 240° C., ion source 200° C. Oven program: 40° C. for 3 min, then 8° C./min to 180° C., held 5 min, then 10° C./min to 220° C., held 10 min. Solvent cut time was set to 5 min. For product identification, total ion monitoring was used, scanning from m/z 45 to m/z 300. For kinetic assays, single ion monitoring of the sesquiterpene base ions m/z 91, 93 and 94 were used. Likewise monoterpene base ions (m/z 69, 71 and 93) were monitored. An internal standard (isobutyl benzene, 30 μM) was added to the hexane used to overlay each reaction. Detector response factors were calculated based on the santalene standard prepared earlier and used to determine the product concentrations for kinetic analysis.

[2] = as above; type: biochemical; remark: listed apart in the source

B1: SspiSSy: santalene synthase from Santalum spicatum, gene SEQ ID NO:5, protein SEQ ID NO:6 (protein, listed as Santalum spicatum)
chain: MDSSTATATTAPFIDHTDHVNLKIDNDSSESRRMGNYKPSIWNYDFLQSLAIHHNIVEEKHLKLAEKLKGQVMSMFGAPMEPLAKLELVDVVQRLGLNHQFETEIKEALFSVYKDGSNGWWFGHLHATSLRFRLLRQCGLFIPQDVFKTFQSKTDEFDMKLCDNIKGLLSLYEASFLGWKGENILDEAKAFATKYLKNAWENISQKWLAKRVKHALALPLHWRVPRIEARWFIEAYEQEENMNPTLLKLAKLDFNMVQSIHQKEIGELARWWVTTGLDKLAFARNNLLQSYMWSCAIASDPKFKLARETIVEIGSVLTVVDDAYDVYGSMDELDHYTYSVERWSCVEIDKLPNTLKLIFMSMFNKTNEVGLRVQHERGYNGIPTFIKAWVEQCKAYQKEARWYHGGHTPPLEEYSLNGLVSIGFPLLLITGYIAIAENEAALDKVHPLPDLLHYSSLLSRLINDMGTSPDEMARGDNLKSIHCYMNETGASEEVAREHIKGIIEENWKILNQCCFDQSQFQEPFITFNLNSVRGSHFFYEFGDGFGVTDSWTKVDMKSVLIDPIPLGEE
modifications: SspiSSy Protein
In the case of B1, the “E-β-farnesene among reaction products (GC-FID)” value ([1]; FPP Mg, mean) is reported as 2.2, the “Z-β-farnesene among reaction products (GC-FID)” value ([1]; FPP Mg, mean) is reported as 0.7 and the “epi-β-santalene among reaction products (GC-FID)” value ([1]; FPP Mg, mean) is reported as 4.2. The “α-E-bergamotene among reaction products (GC-FID)” value ([1]; FPP Mg, mean) was 19.2, the “α-santalene among reaction products (GC-FID)” value ([1]; FPP Mg, mean) was 47.3 and the “β-santalene among reaction products (GC-FID)” value ([1]; FPP Mg, mean) was 26.3. For the same molecule, the “E-β-farnesene among reaction products (GC-FID)” value ([1]; FPP Mg, replicate 1) was 2.5, the “Z-β-farnesene among reaction products (GC-FID)” value ([1]; FPP Mg, replicate 1) was 0.7 and the “epi-β-santalene among reaction products (GC-FID)” value ([1]; FPP Mg, replicate 1) was 4.6. For the same molecule, the “α-E-bergamotene among reaction products (GC-FID)” value ([1]; FPP Mg, replicate 1) was 19.6, the “α-santalene among reaction products (GC-FID)” value ([1]; FPP Mg, replicate 1) was 46.3 and the “β-santalene among reaction products (GC-FID)” value ([1]; FPP Mg, replicate 1) was 26.4. For the same molecule, the “E-β-farnesene among reaction products (GC-FID)” value ([1]; FPP Mg, replicate 2) was 2.2, the “Z-β-farnesene among reaction products (GC-FID)” value ([1]; FPP Mg, replicate 2) was 0.6 and the “epi-β-santalene among reaction products (GC-FID)” value ([1]; FPP Mg, replicate 2) was 4.2. For the same molecule, the “α-E-bergamotene among reaction products (GC-FID)” value ([1]; FPP Mg, replicate 2) was 19.2, the “α-santalene among reaction products (GC-FID)” value ([1]; FPP Mg, replicate 2) was 47.4 and the “β-santalene among reaction products (GC-FID)” value ([1]; FPP Mg, replicate 2) was 26.4. The “E-β-farnesene among reaction products (GC-FID)” value ([1]; FPP Mg, replicate 3) was 2.0, the “Z-β-farnesene among reaction products (GC-FID)” value ([1]; FPP Mg, replicate 3) was 0.8 and the “epi-β-santalene among reaction products (GC-FID)” value ([1]; FPP Mg, replicate 3) was 4.0. The “α-E-bergamotene among reaction products (GC-FID)” value ([1]; FPP Mg, replicate 3) was 18.9, the “α-santalene among reaction products (GC-FID)” value ([1]; FPP Mg, replicate 3) was 48.1 and the “β-santalene among reaction products (GC-FID)” value ([1]; FPP Mg, replicate 3) was 26.3. The “E-β-farnesene among reaction products (GC-FID)” value ([1]; FPP Mn, mean) was 8.2, the “Z-β-farnesene among reaction products (GC-FID)” value ([1]; FPP Mn, mean) was 1.0 and the “epi-β-santalene among reaction products (GC-FID)” value ([1]; FPP Mn, mean) was 1.3. For the same molecule, the “α-E-bergamotene among reaction products (GC-FID)” value ([1]; FPP Mn, mean) was 78.9, the “α-santalene among reaction products (GC-FID)” value ([1]; FPP Mn, mean) was 7.3 and the “β-santalene among reaction products (GC-FID)” value ([1]; FPP Mn, mean) was 3.4. For the same molecule, the “E-β-farnesene among reaction products (GC-FID)” value ([1]; FPP Mn, replicate 1) was 8.1, the “Z-β-farnesene among reaction products (GC-FID)” value ([1]; FPP Mn, replicate 1) was 1.0 and the “epi-β-santalene among reaction products (GC-FID)” value ([1]; FPP Mn, replicate 1) was 1.4. The “α-E-bergamotene among reaction products (GC-FID)” value ([1]; FPP Mn, replicate 1) was 79.0, the “α-santalene among reaction products (GC-FID)” value ([1]; FPP Mn, replicate 1) was 7.2 and the “β-santalene among reaction products (GC-FID)” value ([1]; FPP Mn, replicate 1) was 3.3. The “E-β-farnesene among reaction products (GC-FID)” value ([1]; FPP Mn, replicate 2) was 8.0, the “Z-β-farnesene among reaction products (GC-FID)” value ([1]; FPP Mn, replicate 2) was 1.0 and the “epi-β-santalene among reaction products (GC-FID)” value ([1]; FPP Mn, replicate 2) was 1.7. The “α-E-bergamotene among reaction products (GC-FID)” value ([1]; FPP Mn, replicate 2) was 78.6, the “α-santalene among reaction products (GC-FID)” value ([1]; FPP Mn, replicate 2) was 7.4 and the “β-santalene among reaction products (GC-FID)” value ([1]; FPP Mn, replicate 2) was 3.4. The “E-β-farnesene among reaction products (GC-FID)” value ([1]; FPP Mn, replicate 3) was 8.4, the “Z-β-farnesene among reaction products (GC-FID)” value ([1]; FPP Mn, replicate 3) was 1.0 and the “epi-β-santalene among reaction products (GC-FID)” value ([1]; FPP Mn, replicate 3) was 0.7. The “α-E-bergamotene among reaction products (GC-FID)” value ([1]; FPP Mn, replicate 3) was 79.1, the “α-santalene among reaction products (GC-FID)” value ([1]; FPP Mn, replicate 3) was 7.3 and the “β-santalene among reaction products (GC-FID)” value ([1]; FPP Mn, replicate 3) was 3.5. The “Relative % composition in oil produced by enzyme: E-α-bergamotol” value ([1]; GC-FID) was 19.2%, the “Relative % composition in oil produced by enzyme: β-santalol” value ([1]; GC-FID) was 26.3% and the “Relative % composition in oil produced by enzyme: epi-β-santalol” value [2] was 4.2%. For the same molecule, the “Relative % composition in oil produced by enzyme: α-santalol” value [2] was 47.3%.
